Experimental data: the supplement of paper PMC10724198
± gives the standard deviation of the averaged measurements.

The sequences below were run on Saccharomyces cerevisiae (assay: protein stability index of tFT-peptide fusion (C-terminal peptide) (PSI (0-1 scale)); higher = more stable (slower turnover)). Conditions: genetic background: wild type; temperature: 30 C.
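Further: PSI is a weighted mean of sequencing reads over stability bins, variants kept only with over 10 reads, mCherry proximal and sfGFP distal, peptide attached via GGGS linker.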

VRLLAESWEGGR and VRPEPSTGARGA are within error of each other in protein stability index: 0.702 ± 0.017 for the first, 0.669 ± 0.049 for the second.

First: VRPFTLLSSYSV
Second: VRPREWMIPFEC
The protein stability index of the first is lower: 0.644 ± 0.028 for the first, 0.709 ± 0.012 for the second.

VRRRRVPSEATR and VRSDHSGLEILG are within error of each other in protein stability index: 0.667 ± 0.044 for the first, 0.782 ± 0.11 for the second.

First: VRVECGVWGSVS
Second: VRVEGQCWMGRI
The protein stability index of the first is lower: 0.65806 ± 0.00012 for the first, 0.679 ± 0.017 for the second.

VRVGRGGKELND and VRVKRAGGGGVG are within error of each other in protein stability index: 0.576 ± 0.11 for the first, 0.591 ± 0.028 for the second.

VRVVGVSGGEGG and VRVVPPQPELSP are within error of each other in protein stability index: 0.644 ± 0.027 for the first, 0.648 ± 0.051 for the second.

VRVYLSQNSRFG and VRWGLLLSCLRS are within error of each other in protein stability index: 0.723 ± 0.066 for the first, 0.666 ± 0.03 for the second.

Going from VRWSEVGMGVWR to VSAFLPLFLLTP, the protein stability index falls from 0.708 ± 0.014 to 0.601 ± 0.055.

First: VSCNRGAYVRSR
Second: VSFAGSPVPSSS
The protein stability index of the first is lower: 0.6776 ± 0.0053 for the first, 0.716 ± 0.0095 for the second.

VSFCDVEVRFFV and VSFWSVFSWLSG are within error of each other in protein stability index: 0.619 ± 0.066 for the first, 0.665 ± 0.014 for the second.

VSGCPVVFRSYC and VSGDRFKRHESV are within error of each other in protein stability index: 0.693 ± 0.024 for the first, 0.695 ± 0.027 for the second.

VSGFVILDSTCP and VSIMRLGSCRQD are within error of each other in protein stability index: 0.671 ± 0.025 for the first, 0.702 ± 0.033 for the second.

VSLLCFCFGCVL and VSLPMAPPPLDG are within error of each other in protein stability index: 0.604 ± 0.022 for the first, 0.616 ± 0.013 for the second.

Going from VSLVVGTGEWGA to VSLYRRFLGVYS, the protein stability index falls from 0.762 ± 0.17 to 0.532 ± 0.011.

VSPGYWGPAPLC and VSPPPRFPLLPS are within error of each other in protein stability index: 0.682 ± 0.016 for the first, 0.669 ± 0.03 for the second.

VSPRYRDRPGPS and VSPSPLDHPFHV are within error of each other in protein stability index: 0.692 ± 0.015 for the first, 0.684 ± 0.021 for the second.

Going from VSSVTFSLSFAL to VSSWNALCVEGM, the protein stability index falls from 0.813 ± 0.082 to 0.649 ± 0.0073.

Compared with VSTRVAVESPLG, VSVGRSSARVIG is higher in protein stability index: 0.656 ± 0.03 for the first, 0.725 ± 0.02 for the second.

VSVSERVGNMLP and VTCRALTFSLLG are within error of each other in protein stability index: 0.679 ± 0.035 for the first, 0.635 ± 0.12 for the second.

VTDTSCRAEVEQ and VTEGVGGGKGRG are within error of each other in protein stability index: 0.701 ± 0.059 for the first, 0.597 ± 0.056 for the second.

VTFPSAHSSRRF and VTIFAGIGQFWF are within error of each other in protein stability index: 0.71635 ± 0.00041 for the first, 0.706 ± 0.021 for the second.

VTKRSKKNPTNN and VTREEALICSQP are within error of each other in protein stability index: 0.691 ± 0.018 for the first, 0.811 ± 0.13 for the second.

Compared with VTSVCGYVRIWW, VTVLFFLGPSLL is lower in protein stability index: 0.71 ± 0.047 for the first, 0.575 ± 0.013 for the second.

VVAAGGASDVGG and VVADNGASGWAW are within error of each other in protein stability index: 0.712 ± 0.056 for the first, 0.7579 ± 0.0033 for the second.

First: VVALLGPSGGWW
Second: VVASSRSAQRLP
The protein stability index of the first is higher: 0.742 ± 0.018 for the first, 0.7006 ± 0.0064 for the second.

VVCRTSPVCLGK and VVDGWVAAWGVW are within error of each other in protein stability index: 0.672 ± 0.019 for the first, 0.694 ± 0.003 for the second.

VVFGLESCDWRG and VVGHGLAGCKVG are within error of each other in protein stability index: 0.669 ± 0.0093 for the first, 0.668 ± 0.037 for the second.

Compared with VVGRCVWRGMGG, VVGRGGGFVGPG is lower in protein stability index: 0.688 ± 0.031 for the first, 0.616 ± 0.026 for the second.

VVGRVGGFVGPG and VVGRVTGGGSDG are within error of each other in protein stability index: 0.677 ± 0.1 for the first, 0.646 ± 0.037 for the second.

VVGRWGWACCRP and VVHATITGPVRS are within error of each other in protein stability index: 0.681 ± 0.071 for the first, 0.635 ± 0.019 for the second.

VVKKDTHVKRKT and VVLFHGLGFCHN are within error of each other in protein stability index: 0.636 ± 0.027 for the first, 0.627 ± 0.072 for the second.

VVLGGFAVGLGF and VVLPLCRVPSHW are within error of each other in protein stability index: 0.708 ± 0.021 for the first, 0.688 ± 0.05 for the second.

VVLRRTLGAFLF and VVREAKGHGGCR are within error of each other in protein stability index: 0.661 ± 0.059 for the first, 0.667 ± 0.014 for the second.

VVREARTLNGDM and VVRLTALTNATV are the same in protein stability index: 0.671 ± 0.099 for the first, 0.671 ± 0.086 for the second.

VVRLTNGLFSIL and VVSITYCGQGGG are within error of each other in protein stability index: 0.662 ± 0.0094 for the first, 0.694 ± 0.045 for the second.

VVSLGLGPSLRV and VVSQSPTLGSNY are within error of each other in protein stability index: 0.709 ± 0.1 for the first, 0.655 ± 0.022 for the second.

VVTSVLCGRVHL and VVVAWGGGAVVG are within error of each other in protein stability index: 0.682 ± 0.0069 for the first, 0.684 ± 0.018 for the second.

Compared with VVVGSITRLGLW, VVVGVGGCVDMG is lower in protein stability index: 0.6908 ± 0.00074 for the first, 0.676 ± 0.014 for the second.

VVVGWWALGRFL and VVVRAGAIFAIP are within error of each other in protein stability index: 0.629 ± 0.018 for the first, 0.62 ± 0.045 for the second.

VVVSRARSSRSS and VVWEGSEFVSLA are within error of each other in protein stability index: 0.6332 ± 0.0021 for the first, 0.671 ± 0.039 for the second.

In the case of VVWSGRWKGLRV, the protein stability index is reported as 0.621 ± 0.12.
